Experimental data taken from patent US20230201308A1, “TREATMENT OF CORONAVIRUS INFECTION WITH […]” (Eiger Biopharmaceuticals, Inc., priority 2020, published 2023).
Like-named read-outs stand apart in the source and are kept apart here.

Test system: SARS-CoV-2
[1] = High risk population, Brazil, N = 698
[2] = High risk population, Brazil, N = 698 vs placebo N = 827
[3] = ITT population (Table 20), n=916 vs placebo 1003
[4] = ITT preliminary, n=916 vs placebo 1020

B1: pegylated interferon lambda-1a (protein)
chain: MKPTTTGKGCHIGRFKSLSPQELASFKKARDALEESLKLKNWSCSSPVFPGNWDLRLLQVRERPVALEAELALTLKVLEAAAGPALEDVLDQPLHTLHHILSQLQACIQPQPTAGPRPRGRLHHWLHRLQEAPKKESAGCLEASVTFNLFRLLTRDLKYVADGNLSLRTSTHPEST
modifications: PEG
notes: 180 mcg subcutaneous injection
[1]
  Hospitalization or ER (any duration) for COVID-19: total: 76
  Hospitalization or ER >6 h for COVID-19: percentage: (3.2%)
  Hospitalization or ER >6 h for COVID-19: total: 22
  Mechanical ventilation: percentage: (0.6%)
  Mechanical ventilation: total: 4
[2]
  All cause ER visit >6 h, hospitalization, or death: Pr (Superiority): 0.981
  All cause ER visit >6 h, hospitalization, or death: RR (95% CrI), estimated treatment effect: 0.64 (0.42, 0.97)
  All cause ER visit, hospitalization, or death: Pr (Superiority): 0.883
  All cause ER visit, hospitalization, or death: RR (95% CrI), estimated treatment effect: 0.86 (0.68, 1.10)
  All cause death or hospitalization due to COVID-19: Pr (Superiority): 0.924
  All cause death or hospitalization due to COVID-19: RR (95% CrI), estimated treatment effect: 0.69 (0.41, 1.14)
  Days of hospitalization: MD (95% CrI), estimated treatment effect: −1.39 (−4.38, 1.20)
  Days of hospitalization: Pr (Superiority): 0.8509
  Days on mechanical ventilation: MD (95% CrI), estimated treatment effect: −4.47 (−6.89, 3.09)
  Days on mechanical ventilation: Pr (Superiority): 0.9052
  Days to death for COVID-19: HR (95% CrI), estimated treatment effect: 0.23 (0.01, 1.79)
  Days to death for COVID-19: Pr (Superiority): 0.9080
  Days to hospitalization for COVID-19: HR (95% CrI), estimated treatment effect: 0.58 (0.33, 0.98)
  Days to hospitalization for COVID-19: Pr (Superiority): 0.9780
  Days to hospitalization or ER visit >6 h for COVID-19: HR (95% CrI), estimated treatment effect: 0.47 (0.28, 0.76)
  Days to hospitalization or ER visit >6 h for COVID-19: Pr (Superiority): 0.9992
  Days to hospitalization or death for COVID-19: HR (95% CrI), estimated treatment effect: 0.62 (0.35, 1.05)
  Days to hospitalization or death for COVID-19: Pr (Superiority): 0.9610
  Days to recovery: HR (95% CrI), estimated treatment effect: 0.93 (0.83, 1.04)
  Days to recovery: Pr (Superiority): 0.8862
  Death due to COVID-19: Pr (Superiority): 0.845
  Death due to COVID-19: RR (95% CrI), estimated treatment effect: 0.42 (0.05, 2.08)
  Death or hospitalization due to COVID-19: Pr (Superiority): 0.961
  Death or hospitalization due to COVID-19: RR (95% CrI), estimated treatment effect: 0.63 (0.37, 1.05)
  Hospitalization for COVID-19 (excluding those resulting in death): Pr (Superiority): 0.928
  Hospitalization for COVID-19 (excluding those resulting in death): RR (95% CrI), estimated treatment effect: 0.67 (0.39, 1.14)
  Hospitalization or ER (any duration) for COVID-19: Pr (Superiority): 0.991
  Hospitalization or ER (any duration) for COVID-19: RR (95% CrI), estimated treatment effect: 0.72 (0.56, 0.95)
  Hospitalization or ER >6 h for COVID-19: Pr (Superiority): 0.999
  Hospitalization or ER >6 h for COVID-19: RR (95% CI), estimated treatment effect: 0.49 (0.30, 0.78)
  Mechanical ventilation: Pr (Superiority): 0.717
  Mechanical ventilation: RR (95% CrI), estimated treatment effect: 0.72 (0.21, 2.21)
[3]
  All cause ER visit >6 h, hospitalization, or death, % of patients: (3.7%)
  All cause ER visit >6 h, hospitalization, or death, Pr (Superiority): 0.987
  All cause ER visit >6 h, hospitalization, or death, RR (95% CrI) vs placebo: 0.64 (0.42, 0.95)
  All cause ER visit, hospitalization, or death, % of patients: (13.5%)
  All cause ER visit, hospitalization, or death, Pr (Superiority): 0.831
  All cause ER visit, hospitalization, or death, RR (95% CrI) vs placebo: 0.90 (0.72, 1.12)
  All cause death or hospitalization due to COVID-19, % of patients: (2.6%)
  All cause death or hospitalization due to COVID-19, RR (95% CrI) vs placebo: 0.66 (0.40, 1.07)
  Days of hospitalization, IRR (95% CrI) vs placebo: −1.02 (−3.86, 1.37)
  Days on mechanical ventilation, IRR (95% CrI) vs placebo: −4.47 (−6.89, 3.09)
  Days to death for COVID-19, HR (95% CrI) vs placebo: 0.22 (0.01, 1.64)
  Days to hospitalization for COVID-19, HR (95% CrI) vs placebo: 0.57 (0.33, 0.95)
  Days to hospitalization or ER visit >6 h for COVID-19, HR (95% CrI) vs placebo: 0.47 (0.29, 0.73)
  Days to hospitalization or ER visit >6 h for COVID-19, Pr (Superiority): 0.999
  Days to hospitalization or death for COVID-19, HR (95% CrI) vs placebo: 0.59 (0.35, 1.00)
  Days to recovery, HR (95% CrI) vs placebo: 0.94 (0.85, 1.05)
  Death due to COVID-19, % of patients: (0.1%)
  Death due to COVID-19, RR (95% CrI) vs placebo: 0.40 (0.05, 1.95)
  Death or hospitalization due to COVID-19, % of patients: (2.4%)
  Death or hospitalization due to COVID-19, RR (95% CrI) vs placebo: 0.61 (0.36, 0.99)
  Hospitalization or ER (any duration) for COVID-19, % of patients: (10.8%)
  Hospitalization or ER (any duration) for COVID-19, Pr (Superiority): 0.981
  Hospitalization or ER (any duration) for COVID-19, RR (95% CrI) vs placebo: 0.78 (0.61, 0.99)
  Hospitalization or ER >6 h for COVID-19, % of patients: (2.7%)
  Hospitalization or ER >6 h for COVID-19, Pr (Superiority): 0.999
  Hospitalization or ER >6 h for COVID-19, RR (95% CI) vs placebo: 0.49 (0.30, 0.76)
  Mechanical ventilation, % of patients: (0.4%)
  Mechanical ventilation, RR (95% CrI) vs placebo: 0.66 (0.20, 2.03)
ITT preliminary, n=916
  Days to hospitalization for COVID-19, IQR: 3.0
  Days to hospitalization for COVID-19, Mean: 5.10
  Days to hospitalization for COVID-19, Median: 4.0
  Days to hospitalization or ER visit ≥6 h for COVID-19, IQR: 3.0
  Days to hospitalization or ER visit ≥6 h for COVID-19, Mean: 5.8
  Days to hospitalization or ER visit ≥6 h for COVID-19, Median: 4.0
  Days until death due to COVID-19, IQR: 16.0
  Days until death due to COVID-19, Mean: 22
  Days until death due to COVID-19, Median: 22.0
ITT preliminary, n=916, 28 days
  Any cause Death, % of patients: (0.3%)
[4]
  ER visits over 6 hrs, % of patients: 0.7%
  Relative Reduction in Risk, Deaths: 0.72
  Relative Reduction in Risk, ER visits over 6 hrs: 0.68
  Relative Reduction in Risk, Hospitalizations: 0.43
  Relative Reduction in Risk, Hospitalizations or ER visits over 6 hrs: 0.50
ITT preliminary, n=916 vs placebo 1020, 28 days
  Death due to COVID-19, RR (95% CrI) vs placebo: 0.40 (0.05, 2.00)
